Data: PMC4372654
Like-named read-outs stand apart in the source and are kept apart here.

T1: Orf16 (KfrA homolog), His-tagged (Paenibacillus popilliae ATCC 14706T …, UniProt A0A0D6CB60 1-326)
T1 sequence: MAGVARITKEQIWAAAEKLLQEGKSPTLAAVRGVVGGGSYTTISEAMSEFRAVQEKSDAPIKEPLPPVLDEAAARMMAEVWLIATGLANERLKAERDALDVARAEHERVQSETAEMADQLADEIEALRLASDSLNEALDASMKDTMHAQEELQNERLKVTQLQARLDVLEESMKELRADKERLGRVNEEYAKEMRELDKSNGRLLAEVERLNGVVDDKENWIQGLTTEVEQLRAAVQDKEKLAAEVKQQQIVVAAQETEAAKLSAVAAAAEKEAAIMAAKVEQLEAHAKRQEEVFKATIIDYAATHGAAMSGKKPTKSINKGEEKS

T2: Orf8 (KfrA homolog), His-tagged (Paenibacillus popilliae ATCC 14706T …, UniProt A0A0D6CAG5 1-327)
T2 sequence: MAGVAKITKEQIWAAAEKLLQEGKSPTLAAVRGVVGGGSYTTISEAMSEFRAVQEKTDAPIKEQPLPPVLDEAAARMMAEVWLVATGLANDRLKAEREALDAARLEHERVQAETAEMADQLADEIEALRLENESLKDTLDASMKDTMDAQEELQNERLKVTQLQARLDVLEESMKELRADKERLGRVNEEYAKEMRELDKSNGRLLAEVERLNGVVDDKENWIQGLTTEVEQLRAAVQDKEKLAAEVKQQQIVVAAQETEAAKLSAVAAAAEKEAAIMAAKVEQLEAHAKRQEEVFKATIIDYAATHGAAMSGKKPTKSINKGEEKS

B1: IR1 (dsDNA)
DNA 1: CATGAAAAAATCATG
DNA 2: GTACCATGATTTTTTCATGAGCT
B2: IR3 (dsDNA)
DNA 1: CATACTACATATTACATATTACATACTACATACTACAATATGGAGGGTG
DNA 2: GTACCACCCTCCATATTGTAGTATGTAGTATGTAATATGTAATATGTAGTATGAGCT
B3: IR4 (dsDNA)
DNA 1: CATACTACATACAATATACAACATACTACAATATGGAGGGTG
DNA 2: GTACCACCCTCCATATTGTAGTATGTTGTATATTGTATGTAGTATGAGCT

Columns and labels:
Experiment in all cases: competition
[1] = target: T1, Orf16 (KfrA homolog), His-tagged
[2] = target: T1, Orf16 (KfrA homolog), His-tagged; remark: listed apart in the source
[3] = target: T2, Orf8 (KfrA homolog), His-tagged

Binder	binding result [1]	binding result [2]	binding result [3]
B1	no binding	–	–
B2	–	binds	binds
B3	–	binds	binds
